This series concerns MS2 coat protein. The series is described as follows: apparent KD of MS2 coat protein; designed switch direction (-1 OFF switch, 1 ON switch): -1; higher = weaker reporter binding. The method in brief:
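On Illumina chips, designed RNA switches with common flanks were made by stalled E. coli RNA polymerase. Titrations with SNAP-549-labelled MS2 coat protein, doubling from 0.7 or 1.5 nM to 3 µM, were done with no input, with 200 uM small-molecule ligand, or with an oligonucleotide input. Apparent KD is the median per design over clusters, from curve fits of normalised cluster fluorescence.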

The mark [1] stands for this setting: Eterna round: R95, input ligand: microRNA oligo, concentration not stated.
Where [2] appears, read: input ligand: microRNA oligo, concentration not stated.
[3] abbreviates: Eterna round: R95, input ligand: FMN 200 uM.
The mark [4] stands for this setting: Eterna round: R95, input ligand: none.

Results on 30 sequences are retold here after the supplement of paper PMC9170038.

Take “CUGAGCUGAGGAUAUACAUGAGGAUCACCCAUGUGGGCCUGCGAGGUUACUUGCACAUGUAGAAGGCAGUUCGG [Extended Mod of JL - ex3-3.35 Brourd mod] (puzzle: Exclusion 3)”: the “apparent KD of MS2 coat protein” value under setting [1] stood at 74.4 nM.
For the sequence “AGUACUAUCACGAAAGUGAUAGUACAACGAGCUUGUGAAACAUGAGGAUCACCCAUGUCCUCAUGAGUUCGUCUUAU [JL turnoff v2 67] (Eterna round: R96, puzzle: Sensor v2, turn-off variant 2)”, the “apparent KD of MS2 coat protein” value was found to be 13.9 nM (input ligand: FMN 200 uM), 65.4 nM under setting [2] and 15.7 nM (input ligand: none).
In the case of “AUUAAAACAUAGGAUAUCGAAAUUAUUAUUUAACGAGAAGGAUGAACAUGAGGAUCACCCAUGUGGUAUCAUGG [Mat - Exclusion 6 - JL Mod - D28] (puzzle: Exclusion 6)”, the “apparent KD of MS2 coat protein” value is 307 nM under setting [3], 367 nM under setting [1] and 610 nM under setting [4].
Consider “UAGAGACAUGAGGAUCACCCAUGUGAGGAUAUAGAGGAAGAUUGCGAGAGGGAGAGGACUAGAAGGCACAGUGA [JR_Exclu1_Sub034] (puzzle: Exclusion 1)”, for which the “apparent KD of MS2 coat protein” value under setting [3] was 31.4 nM, the “apparent KD of MS2 coat protein” value under setting [1] stood at 35.2 nM and the “apparent KD of MS2 coat protein” value under setting [4] amounted to 47.5 nM.
As for “GCCGUGUCAGGAUAUCGGCGGCUAUAAGUGUACGUACCUUUCGAGAAGGGACAUGAGGAUCACCCAUGUAAAUC [Eternabot (L1) Solution 25] (Eterna round: R97, puzzle: Exclusion 4)”, the “apparent KD of MS2 coat protein” value is, setting by setting: (input ligand: FMN 200 uM) 29.9 nM; (input ligand: none) 28.9 nM.
For the sequence “CCGCAAAUGCAGGAUAUCGUAUCGGAAACGAUACGAGAAGGGUAAACAUGAGGAUCACCCAUGUUCCUUAACGG [Mat - Exclusion 6 - Eli Mod - D98] (puzzle: Exclusion 6)”, the “apparent KD of MS2 coat protein” value under setting [1] is 16.3 nM.
Regarding “UUGUUCCGUGUAGGAUAUUGGUCUCCCUCGGGCCGAGAAGGACAUGAGGAUCACCCAUGUAUGCUAUUAUCGCGCGUGGCGCAU [Design 92] (Eterna round: R96, puzzle: Exclusion NG 1)”, the “apparent KD of MS2 coat protein” value by setting is: (input ligand: FMN 200 uM) 209 nM; under setting [2], 48.5 nM; (input ligand: none) 58.9 nM.
Regarding “GUUUGCACGCUGCGGUCCUACAUGAGGAUCACCCAUGUGGUCUGGUGGCGUGGGUCGCCGGACUUGGCUCGUCUUGA [salish99_S_TOV1_R5_038] (Eterna round: R97, puzzle: Sensor, turn-off variant 1)”, the “apparent KD of MS2 coat protein” value is, setting by setting: (input ligand: FMN 200 uM) 17.2 nM; (input ligand: none) 16.9 nM.
Turning to “AUAAAACGUGUAGGAUAUGCGUGGCGAAGCUAUGCAGAAGGACAUGAGGAUCACCCAUGUUCAAGCGUCUGCGUACAGAUGCUA [JL eng1 1.35 mod 6] (Eterna round: R96, puzzle: Exclusion NG 1)”, the “apparent KD of MS2 coat protein” value came out at 16.9 nM (input ligand: FMN 200 uM), 14.1 nM under setting [2] and 14.5 nM (input ligand: none).
For “GCGCAAACGCCAAAAGGCGAAACAACAUGAGGAUCACCCAUGUAGGAUAUCGAUUGCUUUGCAGUCGAGAAGGACAUAAUGCGC [JL ENG3 3.80 Mod 3] (Eterna round: R96, puzzle: Exclusion NG 3)”, the “apparent KD of MS2 coat protein” value under setting [2] is 11.9 nM.
Take “CGAUAAAAGACAGGAUAUGAGGAGAGAGAGAGAUCAGAAGGGUCACAUGAGGAUCACCCAUGUGAGUUCUCGAAAGGAAAGAGG [Prohibition 51 - Jieux - Exclusion NG 1] (Eterna round: R96, puzzle: Exclusion NG 1)”: the “apparent KD of MS2 coat protein” value by setting is: (input ligand: FMN 200 uM) 21.4 nM; under setting [2], 15 nM; (input ligand: none) 23 nM.
For “CUUUUGUGAGGAUAUCAGUAGUAAUACAAUAGUAUUACUACUGAGAAGGCACAUGAGGAUCACCCAUGUUUCUC [Ex4 344 Omei mod 3] (puzzle: Exclusion 4)”, the “apparent KD of MS2 coat protein” value under setting [1] was found to be 39.8 nM.
For “CUCGUGCAGCUUUGCUGUACGAGUACAUGAGGAUCACCCAUGUAGGAUAUGGUACGCUUUGCGUGCCAGAAGGACGUGCGUUAG [JL EXNG3 1.41] (Eterna round: R96, puzzle: Exclusion NG 3)”, the “apparent KD of MS2 coat protein” value reads like this: (input ligand: FMN 200 uM) 78.6 nM; under setting [2], 25.9 nM; (input ligand: none) 28.9 nM.
In the same order, the values of “GGAUUGCGGCAAGGAUAUCUUUGUCAACAUAAAACAUGAGGAUCACCCAUGUGCAUCUUCGUGUGAGAGAAGGUGCGGCGAUCC [Geceretima] (Eterna round: R96, puzzle: Exclusion NG 2)” are 1620 nM, 248 nM and 180 nM.
For the sequence “UUAGCUCAAGUCAGGAUAUUAGAGGCUUGCCUAAAUAAGAAGGGACAUGAGGAUCACCCAUGUCUAUGCAUGUA [BmEX4 A.16] (Eterna round: R97, puzzle: Brourd's mod of Exclusion 4)”, the “apparent KD of MS2 coat protein” value is 21.5 nM (input ligand: FMN 200 uM) and 15.9 nM (input ligand: none).
In the case of “GUGGUACAUGAGGAUCACCCAUGUGAGGAUAUGUCUGUCUGUUGGUUUCGGCGGGCGGGCAGAAGGCGCGUCGC [-27.3, -25.1 kcal, 16% A] (Eterna round: R97, puzzle: Exclusion 1)”, the “apparent KD of MS2 coat protein” value is 34.1 nM (input ligand: FMN 200 uM) and 31.6 nM (input ligand: none).
“UAUGUGUCAGGAUAUUAAUUAUAACAGAAUUUAACAAUGAUUAAGAAGGGACAUGAGGAUCACCCAUGUUCAUC [JR_Ex4_Sub024] (Eterna round: R97, puzzle: Exclusion 4)”: the “apparent KD of MS2 coat protein” value by setting is: (input ligand: FMN 200 uM) 22.7 nM; (input ligand: none) 20.4 nM.
“AUUUUGUCAGGAUAUGACUAGUAGCACGAAAGUGCUACUACUUAGAAGGGACAUGAGGAUCACCCAUGUAUUCC [Bring Us a Shrubbery-10] (puzzle: Exclusion 4)”: the “apparent KD of MS2 coat protein” value under setting [1] amounted to 15.1 nM.
Consider “UUAGGAUCAGGAUAUGAUGUUUUUUACAUGAGGAUCACCCAUGUUGAUCCUGAUUCAACAUCAGAAGGGAUAAUUU [JR_Ex5_Sub081] (Eterna round: R97, puzzle: Exclusion 5)”, for which the “apparent KD of MS2 coat protein” value runs as follows: (input ligand: FMN 200 uM) 85.2 nM; (input ligand: none) 21.4 nM.
On to “GUACUGACAGGAUAUACAUGAGGAUCACCCAUGUGCCUUAAUGCUACAAAAGUAGCAAGUAGAAGGGUCUGUAC [Omei Ex3 Model Bachelor's Dilema v11] (Eterna round: R97, puzzle: Exclusion 3)”, for which the “apparent KD of MS2 coat protein” value by setting is: (input ligand: FMN 200 uM) 79.7 nM; (input ligand: none) 16.5 nM.
In the same order, the values of “AUGUUGCGAGGAUAUAUUUACUUGUUGUUAUUUGGUUGGGAACAUGAGGAUCACCCAUGUAGAAGGUGCAUAAC [JR_Ex2_Sub035] (Eterna round: R97, puzzle: Exclusion 2)” are 58.9 nM and 62.5 nM.
As for “UGAUCUUUUGUUAGGAUAUGCUGGGUUUUUUCUCAGCAGAAGGGACAUGAGGAUCACCCAUGUUCUCUCUUUUU [Magic-08] (puzzle: Brourd's mod of Exclusion 4)”, the “apparent KD of MS2 coat protein” value under setting [1] worked out at 9.72 nM.
“CUCGUGCAGCUUUGCUGUACGAGUACAUGAGGAUCACCCAUGUAGGAUAUGGUACGCAAAGCGUGCCAGAAGGACGUGCGUUAG [Mat - Exclusion NG 3 - Mod of JL - D93] (Eterna round: R96, puzzle: Exclusion NG 3)”: the “apparent KD of MS2 coat protein” value by setting is: (input ligand: FMN 200 uM) 78.7 nM; under setting [2], 29.9 nM; (input ligand: none) 33.1 nM.
As for “GUAAACGCAGAGGAUAUAUCAGAUCAAAGCUGCAUAGAAGGCUGCACAUGAGGAUCACCCAUGUGGUCUUCAAG [Mat - Exclusion 6 - JL Mod - D7] (Eterna round: R97, puzzle: Exclusion 6)”, the “apparent KD of MS2 coat protein” value by setting is: (input ligand: FMN 200 uM) 230 nM; (input ligand: none) 31.2 nM.
Regarding “AAAUAGCUUGAGGAUAUUGGAUAGGAUUUAGUGCGAGAAGGCAAGACAUGAGGAUCACCCAUGUUGUGUUGGGA [EX6 #13] (Eterna round: R97, puzzle: Exclusion 6)”, the “apparent KD of MS2 coat protein” value by setting is: (input ligand: FMN 200 uM) 48.4 nM; (input ligand: none) 36.4 nM.
With “CACGUGAUUGGGCUCAUUAACAUGAGGAUCACCCAUGUGUGUGUUUUAGGAUGCCCACAAGCUUUUUCGCCGUCUAG [Eternabot (L1) Solution 3] (Eterna round: R97, puzzle: Sensor, turn-off variant 1)”, the “apparent KD of MS2 coat protein” value is 51 nM (input ligand: FMN 200 uM) and 64.8 nM (input ligand: none).
With “CUGCUCCGUGUAGGAUAUGCGCGCAACCAACGCGCAGAAGGACAUGAGGAUCACCCAUGUAUGUUAUUAUCACGUGAAGCGUCC [Design 30] (Eterna round: R96, puzzle: Exclusion NG 1)”, the “apparent KD of MS2 coat protein” value (input ligand: FMN 200 uM) turned out to be 56.7 nM, the “apparent KD of MS2 coat protein” value under setting [2] is 19.9 nM and the “apparent KD of MS2 coat protein” value (input ligand: none) was 18.2 nM.
With “GGCGUCGUGUAGGAUAUGAAUUGAAAGGCUUCGUCAGAAGGGCACACAUGAGGAUCACCCAUGUGACAGCUGAG [Eternabot (L1) Solution 78] (Eterna round: R97, puzzle: Exclusion 6)”, the “apparent KD of MS2 coat protein” value (input ligand: FMN 200 uM) worked out at 20 nM and the “apparent KD of MS2 coat protein” value (input ligand: none) came to 19.9 nM.
Consider “AGUACUAACACGAUAGUGUUAGUACAAUAAGCUUGUGUUACAUGAGGAUCACCCAUGUCCUCAUAAGCUCGUCUUAU [Mat - Sensor v3 - Turn-off var 2 - D54] (puzzle: Sensor v3, turn-off variant 2)”, for which the “apparent KD of MS2 coat protein” value under setting [3] stood at 105 nM, the “apparent KD of MS2 coat protein” value under setting [1] was found to be 30.4 nM and the “apparent KD of MS2 coat protein” value under setting [4] worked out at 129 nM.
On to “CUGGACCGAGGAUAUAUUAUGUGAAACAUGAGGAUCACCCAUGUAAUAUGAUGGAUGUAAAUAGAAGGCGGUCUAG [Mat - Exclusion 5 - JL mod - D28] (puzzle: Exclusion 5)”, for which the “apparent KD of MS2 coat protein” value by setting is: under setting [3], 34.5 nM; under setting [1], 35.1 nM; under setting [4], 47.3 nM.
